For the assay, the target named is E protein on YFV virions (Yellow fever virus, strain of the …). As to the kind of experiment: flow cytometry on cells. On the technique in general: In flow cytometry, cells or beads pass a laser one at a time.

B1: YD73 human monoclonal antibody, full-length IgG1 (antibody, V domains shown)
VH: QVQLVQSGAEVKKPGASVKVSCKASGYTFIAYGISWVRQAPGQGLEWMGWISAHNGNTNYAQKFQGRVTVTTDTTTRTAFMELRNLRSDDTAVYYCARAPWEYNYRSSGYYDSPYWGQGTLVTVSS
VL: EIVLTQSPGTLSLSPGERATLSCRASQSVVSTYLAWYQQKPGQAPRLLIYDTSTRATGIPDRFSGSGSGTDFTLTISRLEPEDFAVYYCQHYDSSPPWTFGQGTKVEIK
Regarding B1, the binding result is “binds”.

B2: YD6 human monoclonal antibody, full-length IgG1 (antibody, V domains shown)
VH: EVQLVESGGGLVKPGGSLRLSCAASGFIFSDYYMMWIRQAPGKGLEWISYISSSGSQIYYTESVKGRFTISRDNGKNLLYLQMNSLRGEDTALYYCATETGWRIDTWGQGTLVTVSS
VL: QAVLTQPASVSGSPGQSITISCTGTGSNIETYNLVSWYQRHPGKAPKLILYEVSERPSGVSNRFSGSKSGNTASLTISGLQAEDEADYFCCSYADTNIFWVFGGGTHLTVL
On to B2, for which the binding result was “binds”.

The values above are taken from article PMC9529537 (The Innovation, 2022).
